Data taken from patent publication EP4790071A2 (Akeso Biopharma, Inc., dated 2026).

Biological target: T1, human NT5E-Biotin (for NT5E, GenbankID: NP_002517.1, position: 1-552) (human, UniProt P21589 27-552, biotin label, site not stated)
T1 construct: range 1-552; Positions 1-552 as printed include the signal peptide; No cleavage site is stated; also called HNT5E-Biotin; antigen human NT5E-Biotin
T1 sequence (looked up): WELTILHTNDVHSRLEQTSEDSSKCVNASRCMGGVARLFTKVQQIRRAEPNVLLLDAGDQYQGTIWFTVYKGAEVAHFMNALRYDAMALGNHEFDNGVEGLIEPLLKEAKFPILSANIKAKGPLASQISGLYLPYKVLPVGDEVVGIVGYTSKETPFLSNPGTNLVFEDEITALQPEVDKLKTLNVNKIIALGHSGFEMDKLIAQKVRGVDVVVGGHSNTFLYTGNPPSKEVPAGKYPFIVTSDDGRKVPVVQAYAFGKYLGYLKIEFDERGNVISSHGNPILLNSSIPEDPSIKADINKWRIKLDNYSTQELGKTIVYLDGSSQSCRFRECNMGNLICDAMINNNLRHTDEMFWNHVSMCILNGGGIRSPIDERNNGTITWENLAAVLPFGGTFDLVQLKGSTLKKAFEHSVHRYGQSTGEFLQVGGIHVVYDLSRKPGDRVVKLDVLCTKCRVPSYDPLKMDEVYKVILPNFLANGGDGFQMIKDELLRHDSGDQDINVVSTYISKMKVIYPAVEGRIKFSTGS
Assay: ELISA, NT5E-Biotin on streptavidin plate

EC50: 18 pM
B1: murine anti-CD73 monoclonal antibody 19F3 (antibody, V domains shown)
VH: EVQLQQSGPELVKPGASMRMSCKASGYSFTGYTMNWVKQSHGKNLEWIGLINPYNAGTSYNQKFKGKATLTVDKSSSTAYMELLSLTSEDSAVYYCARSEYRYGGDYFDYWGQGTTLTVSS
VL: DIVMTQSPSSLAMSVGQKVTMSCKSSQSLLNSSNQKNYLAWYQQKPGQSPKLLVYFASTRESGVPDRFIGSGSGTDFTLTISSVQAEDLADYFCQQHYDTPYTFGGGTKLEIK
notes: also called murine antibody 19F3
